From the supplement of paper PMC12042874
± gives the uncertainty stated by the source.

assay: amyloid nucleation score (Sup35N fusion, yeast selection) (log enrichment); library NNK1; higher = more nucleation; inactive = no reads after selection
How it was run: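 DiMSum was used to calculate nucleation scores as log enrichment of output over input reads, centred on the mode score of non-aggregating sequences. Sequences with fewer than 100 input reads were not scored. Input and output came from Illumina sequencing of plasmid inserts in psi-negative yeast expressing peptides of 20 random codons fused to Sup35N, induced 24 hours with 100 μM copper sulfate and then grown 7 days at 30°C on medium lacking adenine and uracil.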

Substance	amyloid nucleation score
TCIWDKPVSSGL	-0.543 ± 1
TCLWSYSNAFENPR	1.85 ± 0.31
TCRLKLVFLNVTVKSKFCVL	-0.362 ± 0.76
TCSGA	-0.073 ± 0.39
TCVCQFIWG	-0.086 ± 0.79
TDLMLYYCYSAVPCWDFPAS	0.073 ± 1
TDRMGIQCGRVSLRSRYIRC	-0.198 ± 0.87
TDVSVKLSVMMH	1.53 ± 0.16
TEAMTGYVLNNNWYSQLYVF	-0.601 ± 1.1
TECSSSGIALMWVFWRSICT	inactive
TEDDYYSGLRRGKDKEGCSF	-0.084 ± 0.44
TEDPYSGPILKEPVDLCWLE	0.494 ± 0.74
TEFFGVGLRMKSNGVWWISG	-0.65 ± 1.4
TEITC	0.837 ± 0.27
TEKAPGTGAKQANSKSSAYA	inactive
TEQGMWHSLAGGR	inactive
TEYISG	-0.026 ± 0.97
TFHWMKDAALSQSSVKRTMA	0.359 ± 0.59
TFLEIKVRD	-0.496 ± 0.19
TFLGLAGSHCLFSFVANSAR	1.24 ± 0.28
TFLYVWSTSDSYKK	0.148 ± 0.61
TFPGEWHWERTIVIVPNFFH	2.03 ± 0.15

Substance	amyloid nucleation score
TFTCSFTQLRQLFFFVSQGC	0.214 ± 0.46
TFTVAEQVALE	0.415 ± 0.47
TFVQF	-0.066 ± 0.51
TFVSLATTDFPPNFSLKLFV	-0.579 ± 0.49
TFVVN	0.677 ± 0.3
TFYCYLSLGSHEKKADFSNN	2.21 ± 0.15
TFYLSRDIRLYFSWN	7.83 ± 0.049
TFYMTSSLST	0.028 ± 0.67
TGGTNGHKASCEVRFTVTER	1.08 ± 0.41
TGKDLRAEHENFVARNHFPM	-0.954 ± 1.4
TGNTIAVRLLGKTNWTLIKT	-0.1 ± 0.23
TGSLLTSTWS	-0.474 ± 0.78
TGTDVQGRSRLSDRAWGGYD	-0.098 ± 0.36
TGWEVV	-1.16 ± 0.75
THAVREFWDLGGVNEENYGW	inactive
THWGRVELMFFRSSKHRLT	-0.334 ± 1
TIALRMNRINLDFKYCFNSF	1.49 ± 0.69
TIAMCISLIGIDSYY	0.997 ± 0.29
TIASTGVFNM	inactive
TIATLFIFRDLFNFECLNSH	4.61 ± 0.1
TISGAVRGCGGCSIRWLMSL	-0.663 ± 0.33
TIVGWSITIVRLHSFIFFNG	0.021 ± 0.35

Substance	amyloid nucleation score
TIWCVD	1.01 ± 0.28
TKHRELVLPGLVFTTEYCLV	-0.693 ± 1.6
TKIRCDRWTLYIKGITYRAL	0.86 ± 1.1
TKNSLGHNMLIDWGSCVGGC	1.23 ± 0.31
TKQFEPFCLRLSVVMLLLQE	0.034 ± 0.45
TKSTYSSTVTKRTSASCVTL	0.215 ± 1.1
TKWAVDY	0.347 ± 0.28
TLCQCKLT	-0.286 ± 0.67
TLESCGW	0.773 ± 0.22
TLHVEWSSVIAMLFKMSCGL	-0.785 ± 0.88
TLISSGNVHYMWKVTFLNNR	4.8 ± 0.063
TLKHEQAREGFFAM	-0.053 ± 0.56
TLLELLCEWNTVHKGSP	0.699 ± 0.3
TLLWFNEFILSGPNFRIGVV	0.857 ± 0.58
TLNIVHLYME	4.5 ± 0.065
TLNVFDH	-0.421 ± 0.4
TLPYSKKSLTQFRRGAKICY	0.588 ± 0.56
TLRVLFFKCLGHIRLLVRGF	-1.64 ± 2.7
TLRVVMKWLAHTWFRHTLMR	-0.083 ± 0.42
TLTDSN	-0.221 ± 0.53
TLTSPWDSYKRFCKNSPLFN	0.353 ± 1.4
TLVFRYKSDGCQSLRVRLTF	0.084 ± 0.32

Substance	amyloid nucleation score
TLVFYRVQGFGIPKSQLTGE	-0.675 ± 1.1
TLVLSLAHPCASGNKPDKSG	0.863 ± 0.32
TLWYLLQITYVLKFKW	0.301 ± 0.4
TLYIYAMEDSGGFEDGGMCI	4.18 ± 0.1
TMCCTLDARRLLLSMADFYC	5.42 ± 0.072
TMISLAFIIYPLNMAPMYME	1.97 ± 0.45
TMPNSFRWCLNGRVRRDRFC	-0.215 ± 0.97
TMSSFDGPSV	-2.58 ± 1.8
TNVFGILYFEYFLVLDG	0.208 ± 0.3
TNVMLPNGVGFLAPAVHCES	1.04 ± 0.51
TNVYESSVSFVMMGS	0.364 ± 0.26
TPAFTIFSWAIGEDYLFVEM	0.777 ± 0.9
TPLWKSII	-0.046 ± 0.68
TQPLEIK	-0.165 ± 1.5
TQVIAPVVCMAIDYCANITV	4.96 ± 0.099
TRGCLRPATSKSGMRPW	0.056 ± 0.69
TRHFVTVFGCVDNRVEYLNG	3.22 ± 0.1
TRKLFTFMLDRMYLMVGRRL	-0.294 ± 0.6
TRLGYFNFGSLHVSLWDFML	0.6 ± 0.28
TRRSRFW	1.45 ± 0.35
